Common to all, as to assay: SPR, AAV amine-coupled to CM5 chip;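 further: nanobodies flowed as analyte at seven concentrations spanning 1–100 nM over immobilized AAV (500–800 RU), kinetic constants derived by fitting the binding curves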
(SPR reads the build-up and loss of mass on a sensor chip optically.)

In one assay the target is T1, AAV9 (adeno-associated virus 9).
T1 construct: also called adeno-associated virus serotype 9

The next assay addresses T2, AAV8 (adeno-associated virus 8).
T2 construct: also called adeno-associated virus serotype 8

The next assay has as its target T3, AAV5 (adeno-associated virus 5).
T3 construct: also called adeno-associated virus serotype 5

For the next assay, the target named is T4, AAV2 (adeno-associated virus 2, UniProt P03135 1-735).
T4 construct: also called adeno-associated virus serotype 2

By Kd is commonly meant the equilibrium constant for the complex coming apart. One may read the koff as the rate constant with which the complex falls apart. Read a low koff as slow dissociation. By kon is commonly meant the rate constant with which the complex forms.

Procedure for AAV2: (§1) AAV was amine-coupled to a CM5 sensor chip at a density of 500-800 response units (RU). Nanobodies were injected at seven concentrations (1-100 nM) with a flow rate of 45 μL/min, and chip regeneration was performed using glycine-HCl (pH 1.5). Binding curves at different nanobody concentrations were used to calculate kinetic parameters (Kₐ, Kd, KD) (Table 2 and FIG. 2).
Procedure for AAV5: as §1
Procedure for AAV8: as §1
Procedure for AAV9: as §1

B1: A4-051 (VHH)
VHH: VQLQESGGGLVQPGGSLRLSCAASGSSFVINTMGWYRRAPGKQRELVAAVTRGGSTNYADSVKGRFTISRDNAKNTVYLQMNSLRPEDTAVYYCHVDEVRQSSWTTSNLWGQGTQVTVSS
As to B1, the Kd with AAV9 was found to be 0.712 µM; with AAV8, 0.791 µM; in the assay with AAV5, 0.748 µM; in the assay with AAV2, 0.907 µM. Moreover, the koff came out at 0.00477 s⁻¹ in the assay with AAV9, 0.00466 s⁻¹ with AAV8, 0.00507 s⁻¹ in the assay with AAV5 and 0.00325 s⁻¹ with AAV2. Besides, the kon with AAV9 turned out to be 6700 M⁻¹ s⁻¹; in the assay with AAV8, 5890 M⁻¹ s⁻¹; in the assay with AAV5 it was 6780 M⁻¹ s⁻¹; in the assay with AAV2, 3580 M⁻¹ s⁻¹.

B2: A4-094 (VHH)
VHH: VQLQESGGGLVQPGGSLRLSCVASGSIFVINTMGWYRQAPGKQRELVATVTRDGGTNYADSVKGRFTISRDNAKNTVYLQMNSLRPEDTAVYYCHIDEIRESSWTTSNLWGQGTQVTVSS
Take B2: the Kd was 0.0448 µM in the assay with AAV9, 0.0865 µM with AAV8 and 0.171 µM in the assay with AAV5. Besides, the koff with AAV9 was 0.00043 s⁻¹; with AAV8, 0.00058 s⁻¹; with AAV5, 0.00166 s⁻¹. The on-rate constant (kon) with AAV9 was found to be 9600 M⁻¹ s⁻¹; with AAV8 it was 6710 M⁻¹ s⁻¹; with AAV5, 9680 M⁻¹ s⁻¹.

B3: A4-091 (VHH)
VHH: VQLQESGGGLVQPGGSLRLSCAASGSRFSINTMGWYRQRAGKQRELVATVTRDGSTTYANSVKGRFTISRDNAKNTVYLQMNSLRPEDTAVYYCHVDELRQSTWTTSNLWGQGTQVTVSS
In the assay with AAV9, B3 had a Kd of 0.0345 µM, a koff of 0.0002 s⁻¹ and an association rate constant (kon) of 5790 M⁻¹ s⁻¹. Besides, in the assay with AAV8, binding was put at a Kd of 0.0994 µM, the koff came to 0.00091 s⁻¹ and the association rate constant (kon) worked out at 9160 M⁻¹ s⁻¹. Further, in the assay with AAV5, the Kd was 0.00449 µM, the koff turned out to be 3e-05 s⁻¹ and the association rate constant (kon) is 6690 M⁻¹ s⁻¹.

B4: A4-100 (VHH)
VHH: VQLQESGGGLVQPGGSLRLSCAASGSIFVINTMGWYRQAPGKQRELVASLTRGGSTNYADSVKGRFTISRDNDKNTIYLQMNSLRPEDTAVYYCHVDEVRESTWTTSNIWGQGTQVTVSS
In the assay with AAV9, B4 yielded an equilibrium dissociation constant (Kd) of 0.00764 µM, an off-rate (koff) of 0.00126 s⁻¹ and a kon of 165000 M⁻¹ s⁻¹. Further, in the assay with AAV8, the affinity, expressed as Kd, was 0.0362 µM; the koff was determined as 0.00356 s⁻¹; the association rate constant (kon) turned out to be 98300 M⁻¹ s⁻¹. In the assay with AAV5, this molecule yielded an equilibrium dissociation constant (Kd) of 0.00675 µM, a dissociation rate constant (koff) of 0.00124 s⁻¹ and a kon of 184000 M⁻¹ s⁻¹.

B5: A4-068 (VHH)
VHH: VQLQESGGGLVQTGGSLRLSCAASGRAFSLNTMGWYRQAPGKWRELVATVTRGGSTNYAGSVKGRFTISRDNAKNTVYLQMNNLRPEDTAVYYCHVDEVRESSWTTSNLWGQGTQVTVSS
As to B5, the Kd in the assay with AAV9 came out at 0.0319 µM; in the assay with AAV8, 0.182 µM; with AAV5, 0.0453 µM; with AAV2, 0.0119 µM. Moreover, the off-rate constant (koff) was determined as 0.00349 s⁻¹ with AAV9, 0.00436 s⁻¹ in the assay with AAV8, 0.00608 s⁻¹ with AAV5 and 0.00167 s⁻¹ with AAV2. In addition, the kon in the assay with AAV9 is 109000 M⁻¹ s⁻¹; with AAV8, 24000 M⁻¹ s⁻¹; with AAV5, 134000 M⁻¹ s⁻¹; with AAV2, 141000 M⁻¹ s⁻¹.

B6: A4-064 (VHH)
VHH: VQLQESGGGLVQSGGSLRLSCAASGRNFSLNTVGWYRQAPGKQRELVATVTSGGGTNYAGSVKGRFTISRDNAKNTVYLQMNSLRPEDTAVYYCHVDEVRESTWTTSNLWGQGTQVTVSS
For B6, the Kd in the assay with AAV9 came to 0.42 µM; with AAV8 it was 0.227 µM; in the assay with AAV5 it was 0.0818 µM; with AAV2 it was 0.0757 µM. The dissociation rate constant (koff) with AAV9 worked out at 0.00128 s⁻¹; in the assay with AAV8 it was 0.0017 s⁻¹; with AAV5, 0.00046 s⁻¹; with AAV2 it was 0.0005 s⁻¹. Moreover, the kon amounted to 3050 M⁻¹ s⁻¹ with AAV9, 7500 M⁻¹ s⁻¹ with AAV8, 5620 M⁻¹ s⁻¹ in the assay with AAV5 and 6600 M⁻¹ s⁻¹ with AAV2.

B7: A4-096 (VHH)
VHH: VQLQESGGGLVQPGGSLRLSCIASGSSFSANTMGWYRQAPGKQRELVATITRGGNTNYGDSVKGRFTISRDNAKNTVYLQMNSLRPEDTAVYYCHIDEIRESTWTTSNLWGQGTQVTVSS
As for B7, the Kd in the assay with AAV9 was determined as 0.00514 µM; with AAV8, 0.0154 µM; with AAV5, 0.0489 µM. Besides, the koff in the assay with AAV9 amounted to 0.00064 s⁻¹; with AAV8 it was 0.00169 s⁻¹; with AAV5 it was 0.00123 s⁻¹. The kon in the assay with AAV9 came to 125000 M⁻¹ s⁻¹; with AAV8, 110000 M⁻¹ s⁻¹; with AAV5, 25100 M⁻¹ s⁻¹.

B8: A4-098 (VHH)
VHH: VQLQESGGGLVQPGGSLRLSCIASGSIFSINTMGWYRQAPGKQRELVATITRGGNTNYGDSVKGRFTISRDNAKNTVYLQMNTLRPEDTAVYYCHVDEIRESSWTTSNLWGQGTQVTVSS
Consider B8, for which, in the assay with AAV9, the Kd was 0.0822 µM, the koff was found to be 0.0006 s⁻¹ and the kon stood at 7300 M⁻¹ s⁻¹. Besides, in the assay with AAV8, the Kd is 0.0233 µM, the off-rate constant (koff) was 0.00018 s⁻¹ and the kon was 7740 M⁻¹ s⁻¹. In the assay with AAV5, this molecule displayed a Kd of 0.13 µM, a koff of 0.00117 s⁻¹ and a kon of 9030 M⁻¹ s⁻¹.

B9: A4-097 (VHH)
VHH: VQLQESGGGLVQPGGSLRLSCIASGSIFSANTMGWYRQAPGKQRELVATITRGGNTNYGDSVKGRFTISRDNAKNTVYLQMNTLRPEDTAVYYCHVDEIRESSWTTSNLWGQGTQVTVSS
As for B9, the Kd in the assay with AAV9 is 0.0623 µM; with AAV8, 0.0124 µM; with AAV5, 0.578 µM. Besides, the koff with AAV9 came out at 0.00816 s⁻¹; in the assay with AAV8 it was 0.00192 s⁻¹; in the assay with AAV5, 0.00544 s⁻¹. Also, the kon with AAV9 is 131000 M⁻¹ s⁻¹; with AAV8, 155000 M⁻¹ s⁻¹; with AAV5, 9410 M⁻¹ s⁻¹.

B10: A4-067 (VHH)
VHH: VQLQESGGGLVQTGGSLRLSCAASGRAFSLNTMGWYRQAPGKWRELVATVTRGGSTNYAGSVKGRFTISRDNTKNTVYLQMNNLRPEDTAVYYCHVDEVRESSWTTSNLWGQGTQVTVSS
With B10, the Kd with AAV9 worked out at 0.106 µM; in the assay with AAV8, 0.128 µM; with AAV5, 0.00714 µM; in the assay with AAV2, 0.016 µM. Further, the koff in the assay with AAV9 worked out at 0.00035 s⁻¹; with AAV8, 0.00044 s⁻¹; with AAV5, 2e-05 s⁻¹; with AAV2 it was 3e-05 s⁻¹. Also, the association rate constant (kon) was 3320 M⁻¹ s⁻¹ with AAV9, 3440 M⁻¹ s⁻¹ in the assay with AAV8, 2800 M⁻¹ s⁻¹ with AAV5 and 1870 M⁻¹ s⁻¹ with AAV2.

B11: A4-056 (VHH)
VHH: VQLQESGGGLVQPGGSLRLSCAASGSAFSINTMGWYRQAPGKQREKVAAVTRGGSTNYADSVKGRFTISRDNAKNTVYLQMNSLRPEDTAVYYCHVDEVRQSSWTTSNLWGQGTQVTVSS
For B11, the Kd with AAV9 turned out to be 0.0969 µM; in the assay with AAV8 it was 0.265 µM; with AAV5, 0.622 µM; in the assay with AAV2 it was 0.224 µM. For the same molecule, the koff with AAV9 stood at 0.00887 s⁻¹; in the assay with AAV8, 0.00779 s⁻¹; with AAV5, 0.00648 s⁻¹; with AAV2, 0.00485 s⁻¹. The kon stood at 91500 M⁻¹ s⁻¹ with AAV9, 29400 M⁻¹ s⁻¹ in the assay with AAV8, 10400 M⁻¹ s⁻¹ with AAV5 and 21600 M⁻¹ s⁻¹ with AAV2.

B12: A4-095 (VHH)
VHH: VQLQESGGGLVQPGGSLRLSCAASGSSFSANTMGWYRQAPGKQRELVATITRGGNTNYGDSVKGRFTISRDNAKDTVYLQMNSLRPEDTAVYYCHIDEIRESTWTTSNLWGQGTQVTVSS
On to B12, for which the Kd in the assay with AAV9 worked out at 0.00634 µM; in the assay with AAV8, 0.00225 µM; with AAV5, 0.0145 µM. Also, the koff in the assay with AAV9 was 0.00114 s⁻¹; in the assay with AAV8, 0.00026 s⁻¹; with AAV5 it was 0.00133 s⁻¹. For the same molecule, the kon in the assay with AAV9 is 180000 M⁻¹ s⁻¹; with AAV8, 116000 M⁻¹ s⁻¹; with AAV5, 91800 M⁻¹ s⁻¹.

B13: A4-054 (VHH)
VHH: VQLQESGGGLVQPGGSLRLSCAASGSAFSINTMGWYRQAPGKQRELVAAVTRGGSTNYADSVKGRFTISRDNAKNTVYLQMNSLRPEDTAVYYCHVDEVRQSSWTTSNLWGQGTQVTVSS
B13: the Kd was 0.0289 µM in the assay with AAV9, 0.368 µM with AAV8, 0.213 µM with AAV5 and 1.06 µM in the assay with AAV2. The koff worked out at 0.00025 s⁻¹ with AAV9, 0.0018 s⁻¹ with AAV8, 0.00163 s⁻¹ with AAV5 and 0.00114 s⁻¹ with AAV2. Besides, the kon in the assay with AAV9 was 8660 M⁻¹ s⁻¹; with AAV8, 4890 M⁻¹ s⁻¹; with AAV5, 7660 M⁻¹ s⁻¹.

B14: A4-071 (VHH)
VHH: VQLQESGGGAVQAGGSLRLSCAASGSTFSINTMGWYRQAPGKQRELVATVTRGGSTNYGDFVKGRFTISRDNAKNTVYLQMNTLRPEDTAVYYCHLDEVRQSSWTTSNLWGQGTQVTVSS
Turning to B14, the Kd with AAV9 amounted to 0.0309 µM; with AAV8, 0.0164 µM; in the assay with AAV5, 0.00946 µM; with AAV2 it was 0.093 µM. Besides, the koff was 0.00176 s⁻¹ in the assay with AAV9, 0.00137 s⁻¹ with AAV8, 0.00171 s⁻¹ with AAV5 and 0.002 s⁻¹ with AAV2. The kon amounted to 57000 M⁻¹ s⁻¹ with AAV9, 83300 M⁻¹ s⁻¹ in the assay with AAV8, 181000 M⁻¹ s⁻¹ in the assay with AAV5 and 21500 M⁻¹ s⁻¹ with AAV2.
